Drawing on US9029508 (dated 2015), this text covers EC50 for 21 molecules.

B1: DVD480 DLL4 arm (antibody)
chain 1: EVQLVESGGGLVQPGGSLRLSCAASGFTFTDNWISWVRQAPGKGLEWVGYISPNSGFTYYADSVKGRFTISADTSKNTAYLQMNSLRAEDTAVYYCARDNFGGYFDYWGQGTLVTVSS
chain 2: DIQMTQSPSSLSASVGDRVTITCRASQDVSTAVAWYQQKPGKAPKLLIYSASFLYSGVPSRFSGSGSGTDFTLTISSLQPEDFATTYYCQQSYTGTVTFGQGTKVEIKR
modifications: DVD-Ig inner
B2: DVD481 DLL4 arm (antibody)
chain 1: EVQLVESGGGLVQPGGSLRLSCAASGFTFTDNWISWVRQAPGKGLEWVGYISPNSGFTYYADSVKGRFTISADTSKNTAYLQMNSLRAEDTAVYYCARDNFGGYFDYWGQGTLVTVSS
chain 2: DIQMTQSPSSLSASVGDRVTITCRASQDVSTAVAWYQQKPGKAPKLLIYSASFLYSGVPSRFSGSGSGTDFTLTISSLQPEDFATTYYCQQSYTGTVTFGQGTKVEIKR
modifications: DVD-Ig outer
B3: DVD476 DLL4 arm (antibody)
chain 1: EVQLVESGGGLVQPGGSLRLSCAASGFTFTDNWISWVRQAPGKGLEWVGYISPNSGFTYYADSVKGRFTISADTSKNTAYLQMNSLRAEDTAVYYCARDNFGGYFDYWGQGTLVTVSS
chain 2: DIQMTQSPSSLSASVGDRVTITCRASQDVSTAVAWYQQKPGKAPKLLIYSASFLYSGVPSRFSGSGSGTDFTLTISSLQPEDFATTYYCQQSYTGTVTFGQGTKVEIKR
modifications: DVD-Ig inner
B4: DVD479 DLL4 arm (antibody)
chain 1: EVQLVESGGGLVQPGGSLRLSCAASGFTFTDNWISWVRQAPGKGLEWVGYISPNSGFTYYADSVKGRFTISADTSKNTAYLQMNSLRAEDTAVYYCARDNFGGYFDYWGQGTLVTVSS
chain 2: DIQMTQSPSSLSASVGDRVTITCRASQDVSTAVAWYQQKPGKAPKLLIYSASFLYSGVPSRFSGSGSGTDFTLTISSLQPEDFATTYYCQQSYTGTVTFGQGTKVEIKR
modifications: DVD-Ig outer
B5: DVD516 DLL4 arm (antibody, V domains shown)
VH: EVQLQQSGPELEKPGASVKISCKASGYSFTGYNMNWVKQSNGKSLEWIGNIDPYFGGTNYNQKFKGKATLTVDKSSSTAYMQLKSLTSEDSAVYYCARNYDYDGGCFDYWGQGTTLTVSS
VL: QAVVTQESALTTSPGETVTLTCRSSTGAVTTSNYANWVQEKPDHLFTGLIGGTNNRAPGVPARFSGSLIGDKAALTITGAQTEDEAIYFCALWYSNHWVFGGGTKLTVLG
modifications: DVD-Ig inner
B6: DVD530 DLL4 arm (antibody, V domains shown)
VH: EVQLQQSGPELEKPGASVKISCKASGYSFTGYNMNWVKQSNGKSLEWIGNIDPYFGGTNYNQKFKGKATLTVDKSSSTAYMQLKSLTSEDSAVYYCARNYDYDGGCFDYWGQGTTLTVSS
VL: QAVVTQESALTTSPGETVTLTCRSSTGAVTTSNYANWVQEKPDHLFTGLIGGTNNRAPGVPARFSGSLIGDKAALTITGAQTEDEAIYFCALWYSNHWVFGGGTKLTVLG
modifications: DVD-Ig inner
B7: DVD517 DLL4 arm (antibody, V domains shown)
VH: EVQLQQSGPELEKPGASVKISCKASGYSFTGYNMNWVKQSNGKSLEWIGNIDPYFGGTNYNQKFKGKATLTVDKSSSTAYMQLKSLTSEDSAVYYCARNYDYDGGCFDYWGQGTTLTVSS
VL: QAVVTQESALTTSPGETVTLTCRSSTGAVTTSNYANWVQEKPDHLFTGLIGGTNNRAPGVPARFSGSLIGDKAALTITGAQTEDEAIYFCALWYSNHWVFGGGTKLTVLG
modifications: DVD-Ig outer
B8: DVD528 DLL4 arm (antibody, V domains shown)
VH: EVQLQQSGPELEKPGASVKISCKASGYSFTGYNMNWVKQSNGKSLEWIGNIDPYFGGTNYNQKFKGKATLTVDKSSSTAYMQLKSLTSEDSAVYYCARNYDYDGGCFDYWGQGTTLTVSS
VL: QAVVTQESALTTSPGETVTLTCRSSTGAVTTSNYANWVQEKPDHLFTGLIGGTNNRAPGVPARFSGSLIGDKAALTITGAQTEDEAIYFCALWYSNHWVFGGGTKLTVLG
modifications: DVD-Ig inner
B9: DVD518 DLL4 arm (antibody, V domains shown)
VH: EVQLQQSGPELEKPGASVKISCKASGYSFTGYNMNWVKQSNGKSLEWIGNIDPYFGGTNYNQKFKGKATLTVDKSSSTAYMQLKSLTSEDSAVYYCARNYDYDGGCFDYWGQGTTLTVSS
VL: QAVVTQESALTTSPGETVTLTCRSSTGAVTTSNYANWVQEKPDHLFTGLIGGTNNRAPGVPARFSGSLIGDKAALTITGAQTEDEAIYFCALWYSNHWVFGGGTKLTVLG
modifications: DVD-Ig inner
B10: DVD531 DLL4 arm (antibody, V domains shown)
VH: EVQLQQSGPELEKPGASVKISCKASGYSFTGYNMNWVKQSNGKSLEWIGNIDPYFGGTNYNQKFKGKATLTVDKSSSTAYMQLKSLTSEDSAVYYCARNYDYDGGCFDYWGQGTTLTVSS
VL: QAVVTQESALTTSPGETVTLTCRSSTGAVTTSNYANWVQEKPDHLFTGLIGGTNNRAPGVPARFSGSLIGDKAALTITGAQTEDEAIYFCALWYSNHWVFGGGTKLTVLG
modifications: DVD-Ig outer
B11: DVD501 DLL4 arm (antibody, V domains shown)
VH: EVQLQQSGPELVKPGASVKMSCKASGYTFTSYVINWVKQKPGQGLEWIGLINPYNDGTKYNEKFKVKATLTSDKSSSTAYMELSSLTSEDSAVYYCASYYYGSRYYFDYWGQGTTLTVSS
VL: DIQMTQSSSYLSVSLGGRVTITCKASDHINNWLAWYQQKPGNAPRLLISGATSLETGVPSRFSGSGSGKDYTLSITSLQTEDVATYYCQQYWSIPLTFGAGTKLELKR
modifications: DVD-Ig outer
B12: DVD503 DLL4 arm (antibody, V domains shown)
VH: EVQLQQSGPELVKPGASVKMSCKASGYTFTSYVINWVKQKPGQGLEWIGLINPYNDGTKYNEKFKVKATLTSDKSSSTAYMELSSLTSEDSAVYYCASYYYGSRYYFDYWGQGTTLTVSS
VL: DIQMTQSSSYLSVSLGGRVTITCKASDHINNWLAWYQQKPGNAPRLLISGATSLETGVPSRFSGSGSGKDYTLSITSLQTEDVATYYCQQYWSIPLTFGAGTKLELKR
modifications: DVD-Ig outer
B13: DVD492 DLL4 arm (antibody, V domains shown)
VH: EVQLQQSGPELVKPGASVKMSCKASGYTFTSYVINWVKQKPGQGLEWIGLINPYNDGTKYNEKFKVKATLTSDKSSSTAYMELSSLTSEDSAVYYCASYYYGSRYYFDYWGQGTTLTVSS
VL: DIQMTQSSSYLSVSLGGRVTITCKASDHINNWLAWYQQKPGNAPRLLISGATSLETGVPSRFSGSGSGKDYTLSITSLQTEDVATYYCQQYWSIPLTFGAGTKLELKR
modifications: DVD-Ig inner
B14: DVD502 DLL4 arm (antibody, V domains shown)
VH: EVQLQQSGPELVKPGASVKMSCKASGYTFTSYVINWVKQKPGQGLEWIGLINPYNDGTKYNEKFKVKATLTSDKSSSTAYMELSSLTSEDSAVYYCASYYYGSRYYFDYWGQGTTLTVSS
VL: DIQMTQSSSYLSVSLGGRVTITCKASDHINNWLAWYQQKPGNAPRLLISGATSLETGVPSRFSGSGSGKDYTLSITSLQTEDVATYYCQQYWSIPLTFGAGTKLELKR
modifications: DVD-Ig inner
B15: DVD499 DLL4 arm (antibody, V domains shown)
VH: EVQLQQSGPELVKPGASVKMSCKASGYTFTSYVINWVKQKPGQGLEWIGLINPYNDGTKYNEKFKVKATLTSDKSSSTAYMELSSLTSEDSAVYYCASYYYGSRYYFDYWGQGTTLTVSS
VL: DIQMTQSSSYLSVSLGGRVTITCKASDHINNWLAWYQQKPGNAPRLLISGATSLETGVPSRFSGSGSGKDYTLSITSLQTEDVATYYCQQYWSIPLTFGAGTKLELKR
modifications: DVD-Ig outer
B16: DVD506 DLL4 arm (antibody, V domains shown)
VH: EVQLQQSGPELVKPGASVKMSCKASGYTFTSYVINWVKQKPGQGLEWIGLINPYNDGTKYNEKFKVKATLTSDKSSSTAYMELSSLTSEDSAVYYCASYYYGSRYYFDYWGQGTTLTVSS
VL: DIQMTQSSSYLSVSLGGRVTITCKASDHINNWLAWYQQKPGNAPRLLISGATSLETGVPSRFSGSGSGKDYTLSITSLQTEDVATYYCQQYWSIPLTFGAGTKLELKR
modifications: DVD-Ig inner
B17: DVD496 DLL4 arm (antibody, V domains shown)
VH: EVQLQQSGPELVKPGASVKMSCKASGYTFTSYVINWVKQKPGQGLEWIGLINPYNDGTKYNEKFKVKATLTSDKSSSTAYMELSSLTSEDSAVYYCASYYYGSRYYFDYWGQGTTLTVSS
VL: DIQMTQSSSYLSVSLGGRVTITCKASDHINNWLAWYQQKPGNAPRLLISGATSLETGVPSRFSGSGSGKDYTLSITSLQTEDVATYYCQQYWSIPLTFGAGTKLELKR
modifications: DVD-Ig inner
B18: DVD494 DLL4 arm (antibody, V domains shown)
VH: EVQLQQSGPELVKPGASVKMSCKASGYTFTSYVINWVKQKPGQGLEWIGLINPYNDGTKYNEKFKVKATLTSDKSSSTAYMELSSLTSEDSAVYYCASYYYGSRYYFDYWGQGTTLTVSS
VL: DIQMTQSSSYLSVSLGGRVTITCKASDHINNWLAWYQQKPGNAPRLLISGATSLETGVPSRFSGSGSGKDYTLSITSLQTEDVATYYCQQYWSIPLTFGAGTKLELKR
modifications: DVD-Ig inner
B19: DVD456 DLL4 arm (antibody, V domains shown)
VH: QVQLVQSGAEVKKPGASVKISCKASGYSFTAYYIHWVKQAPGQGLEWIGYISSYNGATNYNQKFKGRVTFTTDTSTSTAYMELRSLRSDDTAVYYCARDYDYDVGMDYWGQGTLVTVSS
VL: DIVMTQSPDSLAVSLGERATISCRASESVDNYGISFMKWFQQKPGQPPKLLIYAASNQGSGVPDRFSGSGSGTDFTLTISSLQAEDVAVYYCQQSKEVPWTFGGGTKVEIKR
modifications: DVD-Ig inner
B20: DVD443 DLL4 arm (antibody, V domains shown)
VH: QVQLVQSGAEVKKPGASVKISCKASGYSFTAYYIHWVKQAPGQGLEWIGYISSYNGATNYNQKFKGRVTFTTDTSTSTAYMELRSLRSDDTAVYYCARDYDYDVGMDYWGQGTLVTVSS
VL: DIVMTQSPDSLAVSLGERATISCRASESVDNYGISFMKWFQQKPGQPPKLLIYAASNQGSGVPDRFSGSGSGTDFTLTISSLQAEDVAVYYCQQSKEVPWTFGGGTKVEIKR
modifications: DVD-Ig outer
B21: DVD450 DLL4 arm (antibody, V domains shown)
VH: QVQLVQSGAEVKKPGASVKISCKASGYSFTAYYIHWVKQAPGQGLEWIGYISSYNGATNYNQKFKGRVTFTTDTSTSTAYMELRSLRSDDTAVYYCARDYDYDVGMDYWGQGTLVTVSS
VL: DIVMTQSPDSLAVSLGERATISCRASESVDNYGISFMKWFQQKPGQPPKLLIYAASNQGSGVPDRFSGSGSGTDFTLTISSLQAEDVAVYYCQQSKEVPWTFGGGTKVEIKR
modifications: DVD-Ig inner

Sequence of DLL4 (Q9NR61 27-524): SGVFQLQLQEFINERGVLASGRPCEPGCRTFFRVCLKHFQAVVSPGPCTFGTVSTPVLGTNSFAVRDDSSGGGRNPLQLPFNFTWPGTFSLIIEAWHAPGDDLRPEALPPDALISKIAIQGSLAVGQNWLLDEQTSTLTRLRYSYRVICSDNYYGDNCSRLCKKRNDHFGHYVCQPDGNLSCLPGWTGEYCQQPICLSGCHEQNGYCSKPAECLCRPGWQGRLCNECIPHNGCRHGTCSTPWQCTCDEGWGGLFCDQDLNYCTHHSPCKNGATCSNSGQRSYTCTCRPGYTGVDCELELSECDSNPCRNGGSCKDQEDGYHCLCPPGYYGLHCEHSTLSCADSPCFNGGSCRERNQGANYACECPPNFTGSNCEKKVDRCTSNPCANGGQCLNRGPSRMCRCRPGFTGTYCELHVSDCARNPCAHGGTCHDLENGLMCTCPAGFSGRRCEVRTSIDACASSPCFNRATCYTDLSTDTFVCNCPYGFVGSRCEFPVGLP

The assay addresses DLL4 (human, UniProt Q9NR61). Description: ELISA. (In general: In an ELISA, binding on a coated surface is turned into a signal by an enzyme label.)
As to B1, it took 600 pM to reach a half-maximal effect (EC50). In the case of B2, the response was half-maximal at 3300 pM (EC50). In the case of B3 it was 300 pM. For the molecule B4, the EC50 (as a rule, the concentration that produces a half-maximal response) was 1690 pM. In turn, B5 showed an EC50 of 4330 pM. In the case of B6 it was 220 pM. On to B7, for which a half-maximal effect (EC50) was put at 100 pM. Compared with the last molecule, the EC50 is about 2.2-fold lower. In the case of B8 it was 810 pM; in that of B9, 5900 pM. For the molecule B10, it took 570 pM to reach a half-maximal effect (EC50). Turning to B11, the EC50 was found to be 180 pM.

In the case of B12, the EC50 was found to be 330 pM. The molecule B13 came in with an EC50 of 1770 pM. B14 yielded an EC50 of 3170 pM. For the molecule B15, the response was half-maximal at 90 pM (EC50). In turn, B16 came in with an EC50 of 320 pM. This EC50 lies about 3.6-fold higher than the previous one. For B17, the EC50 was determined as 5590 pM.

In the case of B18, the EC50 was 39500 pM.

As to B19, the midpoint of the response, the EC50, lay at 2480 pM.

B20 yielded a concentration for a half-maximal effect (EC50) of 200 pM. B21 returned an EC50 of 1990 pM.
